PMC12140320, “MeCP2 Lactylation Protects against Ischemic Brain Injury by Transcriptionally Regulating Neuronal Apoptosis”

Biological target: MeCP2 WT (human) (Homo sapiens, UniProt P51608 1-486)
Experiment: EMSA; 50-100 nM protein; EMSA: 10 mM HEPES pH 7.6, 50 mM KCl, 1 mM EDTA, 0.05% Triton X-100, 5% glycerol, 1 mM DTT; 50-100 nM protein, 2 nM biotin probe; room temperature 30 min; 6% native PAGE, 0.5x TBE, 4 C
Conditions: protein: recombinant; (Ni resin); label: biotin; blunt

Chain of MeCP2 WT (human) (P51608 whole entry): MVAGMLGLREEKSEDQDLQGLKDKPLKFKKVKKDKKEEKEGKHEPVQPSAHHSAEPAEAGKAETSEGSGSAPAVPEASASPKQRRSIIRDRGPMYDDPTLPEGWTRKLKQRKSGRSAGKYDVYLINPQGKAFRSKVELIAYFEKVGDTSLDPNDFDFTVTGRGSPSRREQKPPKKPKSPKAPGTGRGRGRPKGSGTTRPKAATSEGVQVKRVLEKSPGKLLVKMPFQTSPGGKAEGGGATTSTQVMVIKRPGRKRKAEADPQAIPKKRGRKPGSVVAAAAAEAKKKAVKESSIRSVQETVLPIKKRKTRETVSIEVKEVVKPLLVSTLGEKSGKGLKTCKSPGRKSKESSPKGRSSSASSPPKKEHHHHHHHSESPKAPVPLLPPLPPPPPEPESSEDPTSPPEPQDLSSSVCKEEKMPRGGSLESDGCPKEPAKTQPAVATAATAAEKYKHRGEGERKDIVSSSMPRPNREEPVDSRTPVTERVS

B1: human-Pdcd4 mCpG probe (dsDNA)
DNA 1: GCGCATGCGCCCTCCCGCGCCCCTCCCC
DNA 2: GGGGAGGGGCGCGGGAGGGCGCATGCGC
modifications: 5-methyl-dC at CpG, both strands; printed '(5-Methyl dC)CG' read as mCG to match the unmethylated probe
B1: binds.

B2: human-Pla2g6 mCpG probe (dsDNA)
DNA 1: GCGCATGCGCCCTCCCGCGCCCCTCCCC
DNA 2: GGGGAGGGGCGCGGGAGGGCGCATGCGC
modifications: 5-methyl-dC at CpG, both strands; printed sequence identical to human-Pdcd4 probe (possible error in paper)
B2: binds.
